B1: SPP: N10/20A (protein)
parent chain: MDSAVSDPHNGSAEAGTPANGTTRPPSTPEGIALAYGSLLLMALLPIFFGALRSVRCARGKSSSDMPETITSRDAARFPIIASCTLLGLYLFFKIFSQEYINLLLSMYFFVLGILALSHTISPFMNKFFPANFPNRQYQLLFTQGSGENKEEIINYEFDTKDLVCLGLSSVVGVWYLLRKHWIANNLFGLAFSLNGVELLHLNNVSTGCILLGGLFIYDIFWVFGTNVMVTVAKSFEAPIKLVFPQDLLEKGLEADNFAMLGLGDIVIPGIFIALLLRFDISLKKNTHTYFYTSFAAYIFGLGLTIFIMHIFKHAQPALLYLVPACIGFPVLVALAKGEVAEMFSYEESNPKDPAAETESKEESTEASASKRLEKKEK
B2: SPPL2c isoform A: N106A (protein)
parent chain: MACLGSLHPLGSLLLLFLLLLLSPEARGEYGLVRVVSKNWSKDYCVLYSSDYVNLPRDLHHAPLLSLHDGTKTPWCPDEDSFHQAQDSSPRQRPLHQTTTMVTRGNCSFYAKGWLAQDQGAQGLLIVSRARNQQCSDTISKPQDPSKPWPALTIPVAVLRYTDMLDIVSHTYGDTDVRVAMFAPLEPVTDYNMAIIFILAVGTVAAGGYWAGLMEANKLQRRQAQRGGGLGGHNQQQTVAAERSQRAWEDDDFEDAPMDFTPAMTGAVVTMSCSIMILLYFFYDCFVYVMIGIFSLGASTGLYSCLAPILCHLPLWRYQWVLPGQRVSVTWPLLLLAGLCAMVTVLWVIHRNEDHWAWLLQDTLGVAYCLFVLRRVRLPTFKNCTLFLLALLAFDVFFVFITPLFTKTGESIMVEVASGPADSSSHERLPMVLKVPRLSFSALTLCNQPFSILGFGDIVVPGFLVAYCHRFDMQVQSRQVYYMACTVAYAVGLLVTFVAMILMQMGQPALLYLVSSTLLTSLAVATCRQEFTLFWTGQGRAKIPAEPVAQPCIASAVGSKMKLEDAKDSRTTNRFEQAVDGESGDLESSTGDDMAEMVTLSEDEATSPEGHSESSEGWSDTNLDPNELPSGSPMALEAMLIPLIQPIPHPSELGHIRTQSRVHDSSLPWMGLHKRKGLKVKKSMSAQAPL

How the values were obtained:
[1] = cell-based cleavage assay, western blot; details: glycan lost
[2] = western blot of total lysates, HEK293T; details: glycan lost; control: wild type SPPL2c-myc
[3] = immunofluorescence of HO-1 ICD nuclear translocation, HeLa; details: glycan lost; control: wild type SPPL2c-myc

Protein | enzymatic_activity ([1]; control: wild type SPP-myc) | expression_or_secretion [2] | enzymatic_activity ([1]; control: wild type SPPL2c-myc) | enzymatic_activity [3]
B1 | no change | – | – | –
B2 | – | decreases | abolishes | abolishes

Reference: publication PMC11513070
